We go through 15 molecules from US6878521B1, “Fibril-blocking peptide, a method for preventing fibril formation” (The University of Chicago, priority 1999, dated 2005).

For data set [1], the target named is T1, SMA (kappa-IV recombinant VL) (Homo sapiens, UniProt P06312, K56R/P66L/Q115H/T120H).
T1 construct: two kappa-IV recombinant VL, LEN and SMA; made in house
The data set is described as follows: agitation-based in vitro SMA fibril formation assay (fluorescence). The format is biochemical. As to conditions: for inhibition of SMA fibril formation: in vitro, result in words. How it is done: Further, the inventors used an agitation-based in vitro assay to assemble fibrils from two kappa-IV recombinant VL, LEN and SMA.
Fibril formation was measured over time at each peptide concentration. The extent of SMA fibril formation at 45 hours in the presence of various concentration so fthe peptides is plotted relative to that of SMA alone at 45 hours.
In the BiP reactions, SMA fibril formation was assayed in the range of 1 to 1000 moles SMA per mole of fibril antagonist.

For data set [2], the system named is SMA LC expressed in COS-1 cells. The data set can be described thus: biochemical assay of soluble and insoluble SMA in transfected COS-1 cells (western blot). In kind it is cell-based. The note with it: for intracellular aggregation of SMA: in cells, result in words; for amount of SMA recovered: 50 μM peptide, overnight, 1-10 μg/ml ALLN.
The test system of a further data set is λ6 VL protein. The data set can be described thus: in vitro fibril assembly of λ6 VL protein. The format is biochemical.
Data set [3] relates to SMA LC expressed in COS cells. The data set is described as follows: aggresome formation in SMA-transfected COS cells, immunofluorescence. The format is cell-based. As to conditions: for cells exhibiting aggresomes: anti-kappa stained cells, peptides added with ALLN; for proportion of COS cells containing aggresomes: SMA-transfected, immunofluorescence, Hsp70 co-expressed, with or without ALLN. How it is done:
COS-1 cells were transiently transfected with FuGENE 6 transfection reagent (Roche Molecular Biochemicals, Indianapolis, Ind.) according to manufacturer's instructions and analyzed two days later. Overnight incubations with various concentrations of ALLN (SEQ. ID. NO. 11) (Sigma Chemical Co., St. Louis, Mo.), 10 μM lactacystin (Calbiochem, La Jolla, Calif.), 10 μg/ml nocodazole (Sigma), or various concentrations of peptides were begun the day following transfection.
A peptide was synthesized that fused an HIV TAT sequence (YGRKKRRQRRR) (SEQ. ID. NO. 8) with the VL derived sequence which the inventors have shown inhibit fiber formation in vitro, discussed supra. To ensure adequate flexibility and solubility, additional VL sequence was added on both sides of the active 7-mer, generating the following sequence for the TAT-TISS peptide: NH2-[…]-OH. (SEQ. ID. NO. 9) A control peptide was synthesized (TAT-PASS) in which the critical hydrophobic residues were substituted with alanines and the extended structure of the peptide destroyed by the addition of a proline (NH2-[…]-OH). (SEQ. ID. NO. 10) cells were treated with either peptide 24 h after transfection and incubated overnight in the presence of the indicated concentrations of ALLN. (SEQ. ID. NO. […]) Cells were then harvested for western blotting or immunofluorescence as described above.
Without ALLN (SEQ. ID. NO. 11) treatment 30% of the COS cells contained aggresomes as assayed by immunofluorescence.
Lastly, the inventors determined that the decrease in steady state level of SMA in the presence of TAT-TISS (SEQ. ID. NO. 9) peptide correlated with a decrease in the frequency of aggresome formation, by scoring anti-kappa stained cells.

Data set [4] has as its target SMA, recombinant kappa-IV light chain variable domain (VL) (human). The data set can be described thus: cell-based or functional assay.
The test system of the next data set is SMA. The data set is described as follows: co-immunoprecipitation with SMA using anti-kappa antibody. In kind it is binding, human. The note with it: co-transfected, metabolically labeled cells, soluble fractions. The method, then: Culture, metabolic labeling, lysis and immunoprecipitation of COS-1 cells were performed as described in Dul et al. Immunol. […] The following antibodies were used in immunoprecipitations: rabbit anti-human kappa antibody (Bethyl Labs, Montgomery, Tex.); goat anti-human kappa (Caltag, Burlingame, Calif.); mouse anti-ubiquitin (StressGen, Victoria, BC, Canada).
Endogenous Hsp70 was also associated with SMA, but was not dramatically enriched.

For the next data set, the target named is transthyretin (Homo sapiens, UniProt P02766). As to conditions: Peterson et al. 1998; cited from earlier work.

“Also recorded” adds a separate entry of the source. Where a SMILES comes first, the peptide text is derived from it. [ ]: non-standard residue; d: D form. Nle = CCCC[C@H](N)C(=O)O Where only a bound is given, the exact number is not on record here.

BiP (binding protein), endoplasmic reticulum chaperone, recombinant wild type, sequence (P07823 19-654): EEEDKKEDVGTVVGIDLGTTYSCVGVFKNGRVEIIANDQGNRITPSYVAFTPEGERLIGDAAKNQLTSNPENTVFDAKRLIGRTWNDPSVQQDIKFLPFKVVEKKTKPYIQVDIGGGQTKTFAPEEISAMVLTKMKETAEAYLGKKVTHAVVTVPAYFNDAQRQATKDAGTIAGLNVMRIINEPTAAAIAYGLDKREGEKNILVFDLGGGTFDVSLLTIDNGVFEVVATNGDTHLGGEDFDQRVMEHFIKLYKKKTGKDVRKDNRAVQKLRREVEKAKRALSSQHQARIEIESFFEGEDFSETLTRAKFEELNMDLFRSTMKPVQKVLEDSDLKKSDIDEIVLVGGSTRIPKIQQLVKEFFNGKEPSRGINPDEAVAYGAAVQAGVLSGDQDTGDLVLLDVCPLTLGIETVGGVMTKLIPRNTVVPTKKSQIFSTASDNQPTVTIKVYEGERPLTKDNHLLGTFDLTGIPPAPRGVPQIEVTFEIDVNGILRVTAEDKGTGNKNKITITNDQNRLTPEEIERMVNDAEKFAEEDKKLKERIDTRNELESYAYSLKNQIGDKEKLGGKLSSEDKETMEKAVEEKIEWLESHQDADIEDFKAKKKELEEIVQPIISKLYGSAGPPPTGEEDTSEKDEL

Consider ferritin [reference compound], for which, in data set [1], the “inhibition of SMA fibril formation” value was “did not significantly decrease fibril formation”.
As for “FTLTISS [Phe71-Thr72-Leu73-Thr74-Ile75-Ser76-Ser77, peptide of positions 71 through 77 of human kappa-4 light chain variable domain]”, the “inhibition of SMA fibril formation” value in data set [1] is given as “fibril blocking; also recorded: markedly inhibited the aggregation”. Besides, in data set [2], the “intracellular aggregation of SMA” value is listed as “effective in reducing intracellular aggregation”.
For FTLKISR, in data set [1], the “inhibition of SMA fibril formation” value is recorded as “inhibited as well as FTLTISS”. In the data set with λ6 VL protein, the “inhibition of fibril assembly of λ6 VL protein” value is given as “inhibited fibril assembly”.
“H-YGRKKRRQRRRSGSGTDFTLTISSLQAED-OH [TAT-TISS]”: in data set [2], the “ubiquitinated forms of SMA” value is listed as “diminished” and the “amount of SMA recovered” value was “dramatically reduced”. In addition, the cells exhibiting aggresomes in data set [3] is given as 25%.
In the case of “BiP (binding protein), endoplasmic reticulum chaperone, recombinant wild type”, in data set [4], the SMA fibril formation (fluorescence units) at 30 SMA:1 BiP was < 10 percent; the SMA fibril formation (fluorescence) at 100:1 stoichiometric ratio amounted to 75 percent; the SMA fibril formation (fluorescence) at 300:1 stoichiometric ratio stood at 100 percent; the inhibition of SMA ordered aggregation at 75 hours, 1 mole BiP per 100 moles SMA amounted to 50%.
For “Hsp70: heat shock protein 70, a family member of BiP; cytosolic chaperone”, the “inhibition of SMA fibril formation” value in data set [1] was “blocked fibril formation”. In data set [1] (listed as heat shock protein (hsp)70), the “inhibition of SMA fibril formation” value is listed as “did inhibit fibril formation”. Also, in data set [2], the “ubiquitinated forms of SMA” value was “decrease in the pool of ubiquitinated SMA” and the “intracellular aggregation of SMA” value is “decreases its aggregation”. Besides, the “proportion of COS cells containing aggresomes” value in data set [3] worked out at 12%. Besides, the “frequency of aggresome formation” value in data set [3] (co-expression with SMA, result in words) is reported as “decreases the frequency of aggresome formation”. In the data set on SMA, the “association with SMA by co-immunoprecipitation” value was “specifically co-immunoprecipitated with SMA”.
Take Lysozyme [reference compound]: the “inhibition of SMA fibril formation” value in data set [1] is listed as “no appreciable fibril blocking ability”; in data set [1] (listed as lysozome), “did not significantly decrease fibril formation”.
In the case of FYQLALT [reference compound], the “effect of prebinding BiP with peptide on BiP's suppression of fibril assembly” value in data set [1] (BiP incubated with peptide before aggregation reaction) is “blocked the chaperone's ability to suppress fibril assembly”.
On to albumin [reference compound], for which the “inhibition of SMA fibril formation” value in data set [1] was “did not significantly decrease fibril formation”.
TDFTLTI: the “inhibition of SMA fibril formation” value in data set [1] is “markedly inhibited the aggregation”.
For the molecule `O=C(O)c1ccccc1Nc1cccc(C(F)(F)F)c1` [flufenamic acid], on transthyretin, the “inhibition of conformational changes of transthyretin” value is “inhibits the conformational changes”.
With `CCCC[C@@H](C=O)NC(=O)[C@H](CC(C)C)NC(=O)[C@H](CC(C)C)NC(C)=O` [ALLN, reference compound] (Ac-Leu-Leu-[Nle]-aldehyde), in data set [3], the “proportion of COS cells containing aggresomes” value amounted to 75% and the cells exhibiting aggresomes entry was “about 65%”.
Turning to TRIFSKL [reference compound], in data set [1], the “inhibition of SMA fibril formation” value is “ineffective fibril blocker”.
Consider PKLLIYWA, for which, in data set [1], the “inhibition of SMA fibril formation” value was “partial inhibition”.
On to “H-YGRKKRRQRRRSGSGTDATAPASSLQAED-OH [TAT-PASS, reference compound]”, for which, in data set [1], the “inhibition of SMA fibril formation” value was “does not inhibit fibril formation in vitro”. For the same molecule, in data set [2] (10 μg/ml ALLN, highest peptide concentration used), the “effect on yield of SMA” value is “only a marginal effect”. In addition, the “amount of SMA recovered” value in data set [2] is listed as “no effect”. For the same molecule, in data set [3], the cells exhibiting aggresomes result is “no significant effect”.
